Results from the supplement of paper PMC10266784.

B1: library; numbered along this chain (parent)
chain: MAAAAAAAAEQQSSNGPVKKSMREKAVERRSVNKEHNSNFKAGYIPIDEDRLHKTGLRGRKGNLAICVIILLFILAVINLIITLVIWAVIRIGPNGCDSMEFHESGLLRFKQVSDMGVIHPLYKSTVGGRRNENLVITGNNQPIVFQQGTTKLSVENNKTSITSDIGMQFFDPRTQNILFSTDYETHEFHLPSGVKSLNVQKASTERITSNATSDLNIKVDGRAIVRGNEGVFIMGKTIEFHMGGNMELKAENSIILNGSVMVSTTRLPSSSSGDQLGSGDWVRYKLCMCADGTLFKVQVTSQNMGCQISDNPCGNTH

Variants of: B1
Assay: SGCB cell-surface expression functional score (HA stain, bin4 vs bin1, normalised to synonymous) (log10 ratio); higher = more cell-surface SGCB (functional)
Method in brief: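 Codon-saturation libraries of HA-tagged, YFP-fused human beta-sarcoglycan were lentivirally transduced at MOI <0.1 into HEK293 cells stably expressing alpha-, gamma- and delta-sarcoglycan. YFP-positive cells were sorted after 72 hours, grown 5–7 days, stained on ice with Alexa Fluor 647 anti-HA, fixed, sorted into four 5% intensity bins and amplicon-sequenced. The functional score is the log ratio of highest-bin to lowest-bin variant frequency, taken as the median over codons and duplicate transductions. Synonymous variants were scaled per section to mean 0, SD 0.5.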

Variant | SGCB cell-surface expression functional score (log10)
MAAAAAAAAEQQSSNGPVKKSMREKAVERRSVNKEHNINFKAGYIPIDEDRLHKTGLRGRKGNLAICVIILLFILAVINLIITLVIWAVIRIGPNGCDSMEFHESGLLRFKQVSDMGVIHPLYKSTVGGRRNENLVITGNNQPIVFQQGTTKLSVENNKTSITSDIGMQFFDPRTQNILFSTDYETHEFHLPSGVKSLNVQKASTERITSNATSDLNIKVDGRAIVRGNEGVFIMGKTIEFHMGGNMELKAENSIILNGSVMVSTTRLPSSSSGDQLGSGDWVRYKLCMCADGTLFKVQVTSQNMGCQISDNPCGNTH [S38I] | -0.09
MAAAAAAAAEQQSSNGPVKKSMREKAVERRSVNKEHNLNFKAGYIPIDEDRLHKTGLRGRKGNLAICVIILLFILAVINLIITLVIWAVIRIGPNGCDSMEFHESGLLRFKQVSDMGVIHPLYKSTVGGRRNENLVITGNNQPIVFQQGTTKLSVENNKTSITSDIGMQFFDPRTQNILFSTDYETHEFHLPSGVKSLNVQKASTERITSNATSDLNIKVDGRAIVRGNEGVFIMGKTIEFHMGGNMELKAENSIILNGSVMVSTTRLPSSSSGDQLGSGDWVRYKLCMCADGTLFKVQVTSQNMGCQISDNPCGNTH [S38L] | -0.26
MAAAAAAAAEQQSSNGPVKKSMREKAVERRSVNKEHNNNFKAGYIPIDEDRLHKTGLRGRKGNLAICVIILLFILAVINLIITLVIWAVIRIGPNGCDSMEFHESGLLRFKQVSDMGVIHPLYKSTVGGRRNENLVITGNNQPIVFQQGTTKLSVENNKTSITSDIGMQFFDPRTQNILFSTDYETHEFHLPSGVKSLNVQKASTERITSNATSDLNIKVDGRAIVRGNEGVFIMGKTIEFHMGGNMELKAENSIILNGSVMVSTTRLPSSSSGDQLGSGDWVRYKLCMCADGTLFKVQVTSQNMGCQISDNPCGNTH [S38N] | 0.37
MAAAAAAAAEQQSSNGPVKKSMREKAVERRSVNKEHNQNFKAGYIPIDEDRLHKTGLRGRKGNLAICVIILLFILAVINLIITLVIWAVIRIGPNGCDSMEFHESGLLRFKQVSDMGVIHPLYKSTVGGRRNENLVITGNNQPIVFQQGTTKLSVENNKTSITSDIGMQFFDPRTQNILFSTDYETHEFHLPSGVKSLNVQKASTERITSNATSDLNIKVDGRAIVRGNEGVFIMGKTIEFHMGGNMELKAENSIILNGSVMVSTTRLPSSSSGDQLGSGDWVRYKLCMCADGTLFKVQVTSQNMGCQISDNPCGNTH [S38Q] | -0.18
MAAAAAAAAEQQSSNGPVKKSMREKAVERRSVNKEHNVNFKAGYIPIDEDRLHKTGLRGRKGNLAICVIILLFILAVINLIITLVIWAVIRIGPNGCDSMEFHESGLLRFKQVSDMGVIHPLYKSTVGGRRNENLVITGNNQPIVFQQGTTKLSVENNKTSITSDIGMQFFDPRTQNILFSTDYETHEFHLPSGVKSLNVQKASTERITSNATSDLNIKVDGRAIVRGNEGVFIMGKTIEFHMGGNMELKAENSIILNGSVMVSTTRLPSSSSGDQLGSGDWVRYKLCMCADGTLFKVQVTSQNMGCQISDNPCGNTH [S38V] | -0.31
MAAAAAAAAEQQSSNGPVKKSMREKAVERRSVNKEHNPNFKAGYIPIDEDRLHKTGLRGRKGNLAICVIILLFILAVINLIITLVIWAVIRIGPNGCDSMEFHESGLLRFKQVSDMGVIHPLYKSTVGGRRNENLVITGNNQPIVFQQGTTKLSVENNKTSITSDIGMQFFDPRTQNILFSTDYETHEFHLPSGVKSLNVQKASTERITSNATSDLNIKVDGRAIVRGNEGVFIMGKTIEFHMGGNMELKAENSIILNGSVMVSTTRLPSSSSGDQLGSGDWVRYKLCMCADGTLFKVQVTSQNMGCQISDNPCGNTH [S38P] | -0.2
MAAAAAAAAEQQSSNGPVKKSMREKAVERRSVNKEHNRNFKAGYIPIDEDRLHKTGLRGRKGNLAICVIILLFILAVINLIITLVIWAVIRIGPNGCDSMEFHESGLLRFKQVSDMGVIHPLYKSTVGGRRNENLVITGNNQPIVFQQGTTKLSVENNKTSITSDIGMQFFDPRTQNILFSTDYETHEFHLPSGVKSLNVQKASTERITSNATSDLNIKVDGRAIVRGNEGVFIMGKTIEFHMGGNMELKAENSIILNGSVMVSTTRLPSSSSGDQLGSGDWVRYKLCMCADGTLFKVQVTSQNMGCQISDNPCGNTH [S38R] | -0.01
MAAAAAAAAEQQSSNGPVKKSMREKAVERRSVNKEHNTNFKAGYIPIDEDRLHKTGLRGRKGNLAICVIILLFILAVINLIITLVIWAVIRIGPNGCDSMEFHESGLLRFKQVSDMGVIHPLYKSTVGGRRNENLVITGNNQPIVFQQGTTKLSVENNKTSITSDIGMQFFDPRTQNILFSTDYETHEFHLPSGVKSLNVQKASTERITSNATSDLNIKVDGRAIVRGNEGVFIMGKTIEFHMGGNMELKAENSIILNGSVMVSTTRLPSSSSGDQLGSGDWVRYKLCMCADGTLFKVQVTSQNMGCQISDNPCGNTH [S38T] | -0.04
MAAAAAAAAEQQSSNGPVKKSMREKAVERRSVNKEHNMNFKAGYIPIDEDRLHKTGLRGRKGNLAICVIILLFILAVINLIITLVIWAVIRIGPNGCDSMEFHESGLLRFKQVSDMGVIHPLYKSTVGGRRNENLVITGNNQPIVFQQGTTKLSVENNKTSITSDIGMQFFDPRTQNILFSTDYETHEFHLPSGVKSLNVQKASTERITSNATSDLNIKVDGRAIVRGNEGVFIMGKTIEFHMGGNMELKAENSIILNGSVMVSTTRLPSSSSGDQLGSGDWVRYKLCMCADGTLFKVQVTSQNMGCQISDNPCGNTH [S38M] | -0.54
MAAAAAAAAEQQSSNGPVKKSMREKAVERRSVNKEHNKNFKAGYIPIDEDRLHKTGLRGRKGNLAICVIILLFILAVINLIITLVIWAVIRIGPNGCDSMEFHESGLLRFKQVSDMGVIHPLYKSTVGGRRNENLVITGNNQPIVFQQGTTKLSVENNKTSITSDIGMQFFDPRTQNILFSTDYETHEFHLPSGVKSLNVQKASTERITSNATSDLNIKVDGRAIVRGNEGVFIMGKTIEFHMGGNMELKAENSIILNGSVMVSTTRLPSSSSGDQLGSGDWVRYKLCMCADGTLFKVQVTSQNMGCQISDNPCGNTH [S38K] | 0.36
